# Laboratory results reported in the supplement of paper PMC11908140.
# B1: library; numbered along this chain (parent)
# chain: MRKPRAAVGSGHRKQAASQEGRQKHAKNNSQAKPSACDGLARQPEEVVLQASVSSYHLFRDVAEVTAFRGSLLSWYDQEKRDLPWRRRAEDEMDLDRRAYAVWVSEVMLQQTQVATVINYYTGWMQKWPTLQDLASASLEEVNQLWAGLGYYSRGRRLQEGARKVVEELGGHMPRTAETLQQLLPGVGRYTAGAIASIAFGQATGVVDGNVARVLCRVRAIGADPSSTLVSQQLWGLAQQLVDPARPGDFNQAAMELGATVCTPQRPLCSQCPVESLCRARQRVEQEQLLASGSLSGSPDVEECAPNTGQCHLCLPPSEPWDQTLGVVNFPRKASRKPPREESSATCVLEQPGALGAQILLVQRPNSGLLAGLWEFPSVTWEPSEQLQRKALLQELQRWAGPLPATHLRHLGEVVHTFSHIKLTYQVYGLALEGQTPVTTVPPGARWLTQEEFHTAAVSTAMKKVFRVYQGQQPGTCMGSKRSQVSSPCSRKKPRMGQQVLDNFFRSHISTDAHSLNSAAQ
# Variants of: B1
# Test: 8OG:A repair function score (normalized; synonymous = 0, nonsense = -1) (normalized log-likelihood score); higher = more repair activity (WT-like)
# Conditions: with 8OG:A DNA repair reporter (GFP) in HEK-293 MUTYH KO cells
# Method in brief: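 After 72 h, viable mCherry+ cells were split into GFP+ (repair) and GFP− bins in three replicates per tile. These cells were MUTYH knockout HEK-293 cells holding lentiviral MUTYH cDNA NNN codon-scan libraries, kept in 10 pg/ml doxycycline and co-transfected with mCherry plus an 8OG:A GFP repair reporter. Sequencing of tile amplicons gave per-tile Rosace fitness scores, normalized into a repair function score anchored on synonymous and nonsense distributions. Synonymous medians were fixed at 0, nonsense at -1, and variants under 300 counts per million at the start were removed.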
# 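Also: cells sorted at 72 h after reporter transfection.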
row,Variant,8OG:A repair function score
1,MRKPRAAVGSGHRKQAASQEGRQKHAKNNSQAKPSACDGLARQPEEVVLQASVSSYHLFRDVAEVTAFRGSLLSWYDQEKRDLPWRRRAEDEMDLDRRAYAVWVSEVMLQQTQVATVINYYTGWMQKWPTLQDLASASLEEVNQLWAGLGYYSRGRRLQEGARKVVEELGGHMPRTAETLQQLLPGVGRYTAGAIASIAFGQATGVVDGNVARVLCRVRAIGADPSSTLVSQQLWGLAQQLVDPARPGDGNQAAMELGATVCTPQRPLCSQCPVESLCRARQRVEQEQLLASGSLSGSPDVEECAPNTGQCHLCLPPSEPWDQTLGVVNFPRKASRKPPREESSATCVLEQPGALGAQILLVQRPNSGLLAGLWEFPSVTWEPSEQLQRKALLQELQRWAGPLPATHLRHLGEVVHTFSHIKLTYQVYGLALEGQTPVTTVPPGARWLTQEEFHTAAVSTAMKKVFRVYQGQQPGTCMGSKRSQVSSPCSRKKPRMGQQVLDNFFRSHISTDAHSLNSAAQ [F250G],-0.867
2,MRKPRAAVGSGHRKQAASQEGRQKHAKNNSQAKPSACDGLARQPEEVVLQASVSSYHLFRDVAEVTAFRGSLLSWYDQEKRDLPWRRRAEDEMDLDRRAYAVWVSEVMLQQTQVATVINYYTGWMQKWPTLQDLASASLEEVNQLWAGLGYYSRGRRLQEGARKVVEELGGHMPRTAETLQQLLPGVGRYTAGAIASIAFGQATGVVDGNVARVLCRVRAIGADPSSTLVSQQLWGLAQQLVDPARPGDLNQAAMELGATVCTPQRPLCSQCPVESLCRARQRVEQEQLLASGSLSGSPDVEECAPNTGQCHLCLPPSEPWDQTLGVVNFPRKASRKPPREESSATCVLEQPGALGAQILLVQRPNSGLLAGLWEFPSVTWEPSEQLQRKALLQELQRWAGPLPATHLRHLGEVVHTFSHIKLTYQVYGLALEGQTPVTTVPPGARWLTQEEFHTAAVSTAMKKVFRVYQGQQPGTCMGSKRSQVSSPCSRKKPRMGQQVLDNFFRSHISTDAHSLNSAAQ [F250L],-0.595
3,MRKPRAAVGSGHRKQAASQEGRQKHAKNNSQAKPSACDGLARQPEEVVLQASVSSYHLFRDVAEVTAFRGSLLSWYDQEKRDLPWRRRAEDEMDLDRRAYAVWVSEVMLQQTQVATVINYYTGWMQKWPTLQDLASASLEEVNQLWAGLGYYSRGRRLQEGARKVVEELGGHMPRTAETLQQLLPGVGRYTAGAIASIAFGQATGVVDGNVARVLCRVRAIGADPSSTLVSQQLWGLAQQLVDPARPGDHNQAAMELGATVCTPQRPLCSQCPVESLCRARQRVEQEQLLASGSLSGSPDVEECAPNTGQCHLCLPPSEPWDQTLGVVNFPRKASRKPPREESSATCVLEQPGALGAQILLVQRPNSGLLAGLWEFPSVTWEPSEQLQRKALLQELQRWAGPLPATHLRHLGEVVHTFSHIKLTYQVYGLALEGQTPVTTVPPGARWLTQEEFHTAAVSTAMKKVFRVYQGQQPGTCMGSKRSQVSSPCSRKKPRMGQQVLDNFFRSHISTDAHSLNSAAQ [F250H],-0.485
4,MRKPRAAVGSGHRKQAASQEGRQKHAKNNSQAKPSACDGLARQPEEVVLQASVSSYHLFRDVAEVTAFRGSLLSWYDQEKRDLPWRRRAEDEMDLDRRAYAVWVSEVMLQQTQVATVINYYTGWMQKWPTLQDLASASLEEVNQLWAGLGYYSRGRRLQEGARKVVEELGGHMPRTAETLQQLLPGVGRYTAGAIASIAFGQATGVVDGNVARVLCRVRAIGADPSSTLVSQQLWGLAQQLVDPARPGDQNQAAMELGATVCTPQRPLCSQCPVESLCRARQRVEQEQLLASGSLSGSPDVEECAPNTGQCHLCLPPSEPWDQTLGVVNFPRKASRKPPREESSATCVLEQPGALGAQILLVQRPNSGLLAGLWEFPSVTWEPSEQLQRKALLQELQRWAGPLPATHLRHLGEVVHTFSHIKLTYQVYGLALEGQTPVTTVPPGARWLTQEEFHTAAVSTAMKKVFRVYQGQQPGTCMGSKRSQVSSPCSRKKPRMGQQVLDNFFRSHISTDAHSLNSAAQ [F250Q],-0.831
5,MRKPRAAVGSGHRKQAASQEGRQKHAKNNSQAKPSACDGLARQPEEVVLQASVSSYHLFRDVAEVTAFRGSLLSWYDQEKRDLPWRRRAEDEMDLDRRAYAVWVSEVMLQQTQVATVINYYTGWMQKWPTLQDLASASLEEVNQLWAGLGYYSRGRRLQEGARKVVEELGGHMPRTAETLQQLLPGVGRYTAGAIASIAFGQATGVVDGNVARVLCRVRAIGADPSSTLVSQQLWGLAQQLVDPARPGDINQAAMELGATVCTPQRPLCSQCPVESLCRARQRVEQEQLLASGSLSGSPDVEECAPNTGQCHLCLPPSEPWDQTLGVVNFPRKASRKPPREESSATCVLEQPGALGAQILLVQRPNSGLLAGLWEFPSVTWEPSEQLQRKALLQELQRWAGPLPATHLRHLGEVVHTFSHIKLTYQVYGLALEGQTPVTTVPPGARWLTQEEFHTAAVSTAMKKVFRVYQGQQPGTCMGSKRSQVSSPCSRKKPRMGQQVLDNFFRSHISTDAHSLNSAAQ [F250I],-0.896
6,MRKPRAAVGSGHRKQAASQEGRQKHAKNNSQAKPSACDGLARQPEEVVLQASVSSYHLFRDVAEVTAFRGSLLSWYDQEKRDLPWRRRAEDEMDLDRRAYAVWVSEVMLQQTQVATVINYYTGWMQKWPTLQDLASASLEEVNQLWAGLGYYSRGRRLQEGARKVVEELGGHMPRTAETLQQLLPGVGRYTAGAIASIAFGQATGVVDGNVARVLCRVRAIGADPSSTLVSQQLWGLAQQLVDPARPGDKNQAAMELGATVCTPQRPLCSQCPVESLCRARQRVEQEQLLASGSLSGSPDVEECAPNTGQCHLCLPPSEPWDQTLGVVNFPRKASRKPPREESSATCVLEQPGALGAQILLVQRPNSGLLAGLWEFPSVTWEPSEQLQRKALLQELQRWAGPLPATHLRHLGEVVHTFSHIKLTYQVYGLALEGQTPVTTVPPGARWLTQEEFHTAAVSTAMKKVFRVYQGQQPGTCMGSKRSQVSSPCSRKKPRMGQQVLDNFFRSHISTDAHSLNSAAQ [F250K],-1.03
7,MRKPRAAVGSGHRKQAASQEGRQKHAKNNSQAKPSACDGLARQPEEVVLQASVSSYHLFRDVAEVTAFRGSLLSWYDQEKRDLPWRRRAEDEMDLDRRAYAVWVSEVMLQQTQVATVINYYTGWMQKWPTLQDLASASLEEVNQLWAGLGYYSRGRRLQEGARKVVEELGGHMPRTAETLQQLLPGVGRYTAGAIASIAFGQATGVVDGNVARVLCRVRAIGADPSSTLVSQQLWGLAQQLVDPARPGDNNQAAMELGATVCTPQRPLCSQCPVESLCRARQRVEQEQLLASGSLSGSPDVEECAPNTGQCHLCLPPSEPWDQTLGVVNFPRKASRKPPREESSATCVLEQPGALGAQILLVQRPNSGLLAGLWEFPSVTWEPSEQLQRKALLQELQRWAGPLPATHLRHLGEVVHTFSHIKLTYQVYGLALEGQTPVTTVPPGARWLTQEEFHTAAVSTAMKKVFRVYQGQQPGTCMGSKRSQVSSPCSRKKPRMGQQVLDNFFRSHISTDAHSLNSAAQ [F250N],-0.903
8,MRKPRAAVGSGHRKQAASQEGRQKHAKNNSQAKPSACDGLARQPEEVVLQASVSSYHLFRDVAEVTAFRGSLLSWYDQEKRDLPWRRRAEDEMDLDRRAYAVWVSEVMLQQTQVATVINYYTGWMQKWPTLQDLASASLEEVNQLWAGLGYYSRGRRLQEGARKVVEELGGHMPRTAETLQQLLPGVGRYTAGAIASIAFGQATGVVDGNVARVLCRVRAIGADPSSTLVSQQLWGLAQQLVDPARPGDMNQAAMELGATVCTPQRPLCSQCPVESLCRARQRVEQEQLLASGSLSGSPDVEECAPNTGQCHLCLPPSEPWDQTLGVVNFPRKASRKPPREESSATCVLEQPGALGAQILLVQRPNSGLLAGLWEFPSVTWEPSEQLQRKALLQELQRWAGPLPATHLRHLGEVVHTFSHIKLTYQVYGLALEGQTPVTTVPPGARWLTQEEFHTAAVSTAMKKVFRVYQGQQPGTCMGSKRSQVSSPCSRKKPRMGQQVLDNFFRSHISTDAHSLNSAAQ [F250M],-0.607
9,MRKPRAAVGSGHRKQAASQEGRQKHAKNNSQAKPSACDGLARQPEEVVLQASVSSYHLFRDVAEVTAFRGSLLSWYDQEKRDLPWRRRAEDEMDLDRRAYAVWVSEVMLQQTQVATVINYYTGWMQKWPTLQDLASASLEEVNQLWAGLGYYSRGRRLQEGARKVVEELGGHMPRTAETLQQLLPGVGRYTAGAIASIAFGQATGVVDGNVARVLCRVRAIGADPSSTLVSQQLWGLAQQLVDPARPGDPNQAAMELGATVCTPQRPLCSQCPVESLCRARQRVEQEQLLASGSLSGSPDVEECAPNTGQCHLCLPPSEPWDQTLGVVNFPRKASRKPPREESSATCVLEQPGALGAQILLVQRPNSGLLAGLWEFPSVTWEPSEQLQRKALLQELQRWAGPLPATHLRHLGEVVHTFSHIKLTYQVYGLALEGQTPVTTVPPGARWLTQEEFHTAAVSTAMKKVFRVYQGQQPGTCMGSKRSQVSSPCSRKKPRMGQQVLDNFFRSHISTDAHSLNSAAQ [F250P],-1.03
10,MRKPRAAVGSGHRKQAASQEGRQKHAKNNSQAKPSACDGLARQPEEVVLQASVSSYHLFRDVAEVTAFRGSLLSWYDQEKRDLPWRRRAEDEMDLDRRAYAVWVSEVMLQQTQVATVINYYTGWMQKWPTLQDLASASLEEVNQLWAGLGYYSRGRRLQEGARKVVEELGGHMPRTAETLQQLLPGVGRYTAGAIASIAFGQATGVVDGNVARVLCRVRAIGADPSSTLVSQQLWGLAQQLVDPARPGDRNQAAMELGATVCTPQRPLCSQCPVESLCRARQRVEQEQLLASGSLSGSPDVEECAPNTGQCHLCLPPSEPWDQTLGVVNFPRKASRKPPREESSATCVLEQPGALGAQILLVQRPNSGLLAGLWEFPSVTWEPSEQLQRKALLQELQRWAGPLPATHLRHLGEVVHTFSHIKLTYQVYGLALEGQTPVTTVPPGARWLTQEEFHTAAVSTAMKKVFRVYQGQQPGTCMGSKRSQVSSPCSRKKPRMGQQVLDNFFRSHISTDAHSLNSAAQ [F250R],-1.01
11,MRKPRAAVGSGHRKQAASQEGRQKHAKNNSQAKPSACDGLARQPEEVVLQASVSSYHLFRDVAEVTAFRGSLLSWYDQEKRDLPWRRRAEDEMDLDRRAYAVWVSEVMLQQTQVATVINYYTGWMQKWPTLQDLASASLEEVNQLWAGLGYYSRGRRLQEGARKVVEELGGHMPRTAETLQQLLPGVGRYTAGAIASIAFGQATGVVDGNVARVLCRVRAIGADPSSTLVSQQLWGLAQQLVDPARPGDSNQAAMELGATVCTPQRPLCSQCPVESLCRARQRVEQEQLLASGSLSGSPDVEECAPNTGQCHLCLPPSEPWDQTLGVVNFPRKASRKPPREESSATCVLEQPGALGAQILLVQRPNSGLLAGLWEFPSVTWEPSEQLQRKALLQELQRWAGPLPATHLRHLGEVVHTFSHIKLTYQVYGLALEGQTPVTTVPPGARWLTQEEFHTAAVSTAMKKVFRVYQGQQPGTCMGSKRSQVSSPCSRKKPRMGQQVLDNFFRSHISTDAHSLNSAAQ [F250S],-0.385
12,MRKPRAAVGSGHRKQAASQEGRQKHAKNNSQAKPSACDGLARQPEEVVLQASVSSYHLFRDVAEVTAFRGSLLSWYDQEKRDLPWRRRAEDEMDLDRRAYAVWVSEVMLQQTQVATVINYYTGWMQKWPTLQDLASASLEEVNQLWAGLGYYSRGRRLQEGARKVVEELGGHMPRTAETLQQLLPGVGRYTAGAIASIAFGQATGVVDGNVARVLCRVRAIGADPSSTLVSQQLWGLAQQLVDPARPGDTNQAAMELGATVCTPQRPLCSQCPVESLCRARQRVEQEQLLASGSLSGSPDVEECAPNTGQCHLCLPPSEPWDQTLGVVNFPRKASRKPPREESSATCVLEQPGALGAQILLVQRPNSGLLAGLWEFPSVTWEPSEQLQRKALLQELQRWAGPLPATHLRHLGEVVHTFSHIKLTYQVYGLALEGQTPVTTVPPGARWLTQEEFHTAAVSTAMKKVFRVYQGQQPGTCMGSKRSQVSSPCSRKKPRMGQQVLDNFFRSHISTDAHSLNSAAQ [F250T],-0.65
